Reference: patent US20050037963

Experiments:
[1] = test system: HA-tagged full-length FIP200 (pKH3-FIP200, residues 1-1591)
[2] = test system: GST fusion protein containing CT-FIP (pGEX-CT-FIP)

Chain of FAK immunoprecipitated from Chinese hamster ovary cells overexpressing FAK (Q05397 2-1052): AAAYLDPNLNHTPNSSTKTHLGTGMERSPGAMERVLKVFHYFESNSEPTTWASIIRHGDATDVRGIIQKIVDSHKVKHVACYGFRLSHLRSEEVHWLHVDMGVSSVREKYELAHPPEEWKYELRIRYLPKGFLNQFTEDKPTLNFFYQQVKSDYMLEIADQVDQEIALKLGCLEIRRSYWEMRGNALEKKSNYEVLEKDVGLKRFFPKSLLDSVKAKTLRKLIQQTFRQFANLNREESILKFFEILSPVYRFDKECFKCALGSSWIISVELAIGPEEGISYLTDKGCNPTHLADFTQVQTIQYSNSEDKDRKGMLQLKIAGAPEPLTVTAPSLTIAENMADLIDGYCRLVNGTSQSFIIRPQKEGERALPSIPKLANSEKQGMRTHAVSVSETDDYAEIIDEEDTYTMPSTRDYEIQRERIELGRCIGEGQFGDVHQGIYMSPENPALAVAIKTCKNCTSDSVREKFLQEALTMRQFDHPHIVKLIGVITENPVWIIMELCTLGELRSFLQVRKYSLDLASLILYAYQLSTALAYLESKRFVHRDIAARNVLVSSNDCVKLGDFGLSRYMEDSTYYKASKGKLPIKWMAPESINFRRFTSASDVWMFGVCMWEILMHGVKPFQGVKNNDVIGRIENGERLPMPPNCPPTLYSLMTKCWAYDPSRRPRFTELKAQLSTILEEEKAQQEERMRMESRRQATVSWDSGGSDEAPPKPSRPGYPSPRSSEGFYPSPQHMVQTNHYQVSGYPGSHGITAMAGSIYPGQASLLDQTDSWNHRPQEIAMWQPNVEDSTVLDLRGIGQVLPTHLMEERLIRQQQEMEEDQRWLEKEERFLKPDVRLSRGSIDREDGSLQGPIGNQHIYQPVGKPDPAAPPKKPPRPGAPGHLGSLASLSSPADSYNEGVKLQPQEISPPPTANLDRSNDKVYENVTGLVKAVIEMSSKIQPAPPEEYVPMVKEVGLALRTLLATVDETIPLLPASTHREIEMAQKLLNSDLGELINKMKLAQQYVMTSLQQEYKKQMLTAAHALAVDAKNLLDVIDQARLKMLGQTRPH
Chain of FAK expressed from an expression vector encoding FAK (tag not stated) (Q05397 2-1052): as above

Substance | rescue of BrdU incorporation (NIH3T3) [1] | FAK kinase activity (in vitro kinase assay, E4Y1 as exogenous substrate) (GST alone [GST: P08515]) | FAK kinase activity (in vitro kinase assay, E4Y1 as exogenous substrate) [2]
FAK expressed from an expression vector encoding FAK (tag not stated) | it rescued the inhibition of BrdU incorporation by FIP200 to the control levels |  | 
FAK immunoprecipitated from Chinese hamster ovary cells overexpressing FAK |  | GST alone did not have any effect | at lower concentrations (e.g., <5 pmol/reaction), GST fusion proteins containing NT-FIP or MD-FIP reduced FAK kinase activity, whereas CT-FIP did not
